The results in this text go back to patent US20140212431A1 (Genentech, published 2014).

Experiment [1] has as its target T1, recombinant human PCSK9 with a histidine (His)8 C-terminal tag (human, UniProt Q8NBP7 31-692, biotinylated in vitro (EZ-link Sulfo-NHS-biotinylation kit) where the assay names biotinylated PCSK9).
T1 construct: also called rPCSK9; biotinylated PCSK9
Put plainly: SPR (Biacore 3000), EGF-Fc captured by anti-human Fc, PCSK9 injected, 1 mM CaCl2; SPR, 1 mM Ca^2+.

Experiment [2] has as its target T1, recombinant human PCSK9 with a …. The experiment is described as follows: cell-based or functional assay.
The target is the same in experiment [3]. Put plainly: biolayer interferometry (Octet RED 384), EGF-Fc on Fc biosensor, PCSK9 0-500 nM, 1 mM CaCl2, steady state fit; biolayer interferometry, steady state, 1 mM CaCl2.

B1: EGFwt-Fc fusion protein (Fc fusion)
chain: not shown
notes: A single EGF-Fc protein contains two EGF domains; also called EGF-Fc (WT); EGF(A)-Fc; not shown: Fc domain of human IgG1 (C222-K443)
As to B1, the Kd in experiment [1] was 0.935 µM; in experiment [3] it was 0.9 µM. The “EC50: concentration that restored LDLR levels on the HepG2 cell surface to 50% of control” value in experiment [2] was found to be 11 µM.
